In assay [1] the target is ACE-2 receptor on Vero e6 cells (African green monkey (Vero e6 cells)). The assay can be described thus: two-color confocal microscopy, co-localization on Vero e6 cells (n=10 analyses).
Assay [2] shares this target.

Where two headings read alike, the source gives them in different places.

Regarding “angiotensin II (from UniProt P01019 25-32) (peptide)”, in assay [1], the fold increase over the non-specific H7 control was found to be 2.79 fold and the particles per field (particles per field) turned out to be 452.

“plant-produced recombinant H7 strain influenza HA protein”: the particles per field (particles per field) in assay [2] was 122.

Values taken from patent US20230149532A1.
